Publication PMC7895813

Legend:
[1] = molecular target: Xenopus tropicalis MDM2 414-C (MDM2^f), GST-tag removed (Xenopus tropicalis (western clawed frog)); assay: crystal structure; MDM2^f or MDM2^hGT mixed with UbcH5B–Ub at 1:1 ratio; crystals grown at 19 °C by vapour diffusion
[2] = molecular target: Xenopus tropicalis MDM2 414-C (MDM2^f), GST-tag removed (Xenopus tropicalis (western clawed frog)); assay: SEC; cleaved MDM2 variants after removal of the GST-tag on HiLoad 16/600 Superdex 75; oligomeric state by comparison with molecular weight markers
[3] = molecular target: Xenopus tropicalis MDM2 414-C (MDM2^f), GST-tag removed (Xenopus tropicalis (western clawed frog)); assay: crystal structure; free MDM2 RING domains (MDM2^z, MDM2^f); crystals grown at 19 °C by vapour diffusion
[4] = molecular target: opossum MDM2 421-C, GST-tag removed (Monodelphis domestica (opossum)); assay: SEC; GST-MDM2 variants (3 mg/mL) incubated with 1:10 TEV for 16-20 h at 4 °C; soluble fraction of the cleaved products on Superdex 75 Increase 10/300; comparison with molecular weight markers and SDS-PAGE

Substance	stoichiometry N [1]	stoichiometry N [2]	stoichiometry N [3]	stoichiometry N [4]
Xenopus tropicalis MDM2 414-C (MDM2^f), GST-tag removed (domain or fragment)	2	2	2	
opossum MDM2 421-C, GST-tag removed (domain or fragment)				2
